Test results from patent US20250145690A1 (US Dept. of Health and Human Services, published 2025).

Molecular target: T1, HCoV-OC43 spike protein (HCoV-OC43, UniProt P36334 14-1297)
T1 sequence: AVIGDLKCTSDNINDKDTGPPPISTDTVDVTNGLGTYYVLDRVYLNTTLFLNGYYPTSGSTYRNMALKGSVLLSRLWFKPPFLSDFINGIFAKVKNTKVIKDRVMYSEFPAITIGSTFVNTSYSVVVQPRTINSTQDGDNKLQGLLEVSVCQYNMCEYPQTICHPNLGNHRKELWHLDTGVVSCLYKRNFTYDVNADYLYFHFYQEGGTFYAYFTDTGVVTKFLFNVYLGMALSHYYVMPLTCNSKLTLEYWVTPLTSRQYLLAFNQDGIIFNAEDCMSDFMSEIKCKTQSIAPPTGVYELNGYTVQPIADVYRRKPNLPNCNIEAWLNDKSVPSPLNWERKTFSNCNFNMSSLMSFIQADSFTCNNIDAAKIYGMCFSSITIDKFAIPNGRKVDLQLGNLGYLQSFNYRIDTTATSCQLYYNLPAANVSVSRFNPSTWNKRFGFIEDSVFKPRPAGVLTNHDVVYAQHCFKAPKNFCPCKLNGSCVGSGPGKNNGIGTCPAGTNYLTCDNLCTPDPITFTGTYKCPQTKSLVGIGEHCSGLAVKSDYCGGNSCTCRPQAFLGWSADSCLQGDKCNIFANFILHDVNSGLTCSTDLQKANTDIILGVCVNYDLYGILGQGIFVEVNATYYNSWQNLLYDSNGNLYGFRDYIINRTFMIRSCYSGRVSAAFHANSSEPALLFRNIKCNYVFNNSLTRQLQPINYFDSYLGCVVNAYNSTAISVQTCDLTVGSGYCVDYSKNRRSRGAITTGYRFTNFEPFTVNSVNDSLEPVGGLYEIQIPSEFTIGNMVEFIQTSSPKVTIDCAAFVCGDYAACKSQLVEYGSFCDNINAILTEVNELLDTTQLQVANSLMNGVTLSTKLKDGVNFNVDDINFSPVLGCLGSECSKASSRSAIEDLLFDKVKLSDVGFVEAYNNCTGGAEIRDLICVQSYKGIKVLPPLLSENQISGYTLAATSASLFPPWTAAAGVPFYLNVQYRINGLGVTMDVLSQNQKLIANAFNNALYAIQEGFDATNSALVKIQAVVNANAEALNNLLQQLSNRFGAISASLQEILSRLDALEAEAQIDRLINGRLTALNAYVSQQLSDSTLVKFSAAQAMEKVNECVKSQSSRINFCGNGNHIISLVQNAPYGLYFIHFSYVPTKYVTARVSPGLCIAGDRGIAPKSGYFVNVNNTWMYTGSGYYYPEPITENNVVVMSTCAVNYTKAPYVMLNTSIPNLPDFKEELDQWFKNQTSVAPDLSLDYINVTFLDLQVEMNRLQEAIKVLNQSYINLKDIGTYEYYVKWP
Assay: bead flow cytometry, AUC minus CD4

B1: COV23-01 (antibody, V domains shown)
VH: QVTLKESGPVLVKPTETLTLTCTVSGFSLSNTKMGVSWIRQPPGKALEWLAHIFSNDRKSYTTSLKSRLTISEDTSKSQIVLTMTNMDPVDTATYYCARIGAGGTYNFYYYMDVWGKGTTVTVSS
VL: EIVLTQSPATLSLSPGERATLSCRASQSVSSYLAWYQQKPGQAPRLLIYDASNRATGIPARFSGSGSGTDFTLTISSLEPEDFAVYYCQQRSLYYTFGQGTKLEIK
- binding result: no binding (tested: 200 µg/mL)
